Measurements: the nanobody polyreactivity screen of Harvey et al. (2022)

Assay: yeast display, Sf9 membrane polyspecificity reagent, FACS + sequencing; frameworks hold sequencing errors
How it was run: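 In a synthetic yeast display library (Saccharomyces cerevisiae BJ5465), nanobody expression was induced with galactose for 36–48 hours. FACS gates were set low and high (top ~1%) using anti-HA fluorescence for expression and streptavidin fluorescence for binding of the Sf9 membrane reagent. Each polyreactivity label is drawn from the gate of origin.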

Sequence	polyreactivity (PSR sort gate)
QVQLVESGGGLVQAGGSLRLSCAASGRIFGFYAMGWYRQAPGKERELVAAITNGGSTYYADSVKGRFTISRDNAKNTVDLQMNSLKPEDTAVYYCNKGRQAHLHITMDYWGQGTQVTLSS	low polyreactivity
QVQLVESGGGLVQAGGSLRLSCAASGRTFLTNAMGWYRQAPGKERELVAAISSGASTNYADSVKGRFTISRDNAKNTVYLQMNSLKPEDTAVYYCAAQLTDYQSKTLSYDYWGQGTQVTVSS	low polyreactivity
QVQLVESGGGLVQAGGSLRLSCAASGRTFAINAMGWYRQATAKERELVADITTDGYTYYADSVKGRFTISRDNAKNTVYLQMNSLKPEDTAVYYCATDSLDYFIRFKQFGYWGQGTQVTVSS	low polyreactivity
QVQLVESGGGLVQAGGSLRVSCAASGSTCSQYVMGWYRQAPGKERELVAAISGGYRTYYADSVKGRFTISRDNAKNTVYLQMNSLKPEDTAVYYCAAEVLKTRWSYDYWGQGTQVTVSS	high polyreactivity
QVQLVESGGGLVQAGGSLRLSCAASGRNFYYYAMGWYRQAPGKEREFVARNRSSGGSTYADSVKGRFTISRDNAKNTVYLQMNSLKPEDTAVYYCARDGYTAVEYDYWGQGTQVTVSS	low polyreactivity
QVHLVESVGGLVQAGGSLRLSCAASGSIFDVYTMGCYRQAPGKERELVAAINTGGGSKYYADSVKGRFTISRDNAKNTVYLQMNSLKPEDTAVYYCAASVYHYGPLYYWGQGTQVTVSS	low polyreactivity
QVQLVESGGGLVQAGGSLRLSCADSGRTFRNYAMGRYRQAPGKERELVATITSSGASTYYADSVKGRFTISRDNAKNTVYLQMNSLKPEDTAVYYCAARPYTGRYFLGYYYWGQGTQVTVSS	high polyreactivity
QVQLVESGGGLVQAGGSLRLSCAGSGFIITQYPMGWYRQAPGKERELVAAISGNGGRTYYADSVKGRFTISRDNAKNTDYLQMNSLKPEDTAVYYCAVTRPGRRYPFGYDYWGQGTQVTVSS	low polyreactivity
QVQLVESGGGLVQAGGSLRLSCAASGSTFLTYAMGWYRQAPGKERELVAAISIAGSTYYADSVKGRFTISRDNAKNTVYLQMNSLKPEDTAVYYCAADIFERGPVPDRHNGYDYWRQGTQVTVSS	low polyreactivity
QVQLEESGGGLVQAGGSLRLSCAASGLTIFVNAMGWYRQAPGKERELVATISGGGSTYYADSVKARFTISRDNAKNTVYLQMNSLKPEDTAVYYCATVWPHRFRYEYWGQGTQVTVSS	low polyreactivity
QVQLVESGGGLVQAGGSLRLSCAASGSTISGYAMGWYRQAPGKEREFVASIRRSGGSTYYADSVKGRFTISRDNAKNTVYLQMNSLKPEDTAVYYCAKRYVVSRGDYWGQGTQVTVSS	high polyreactivity
QVQLVESGGGLVQAGGSLRLSCAASGSIFVNNAMGWYRQAPGKERELVAAIRRGSSTNYADSVKGRFTISRDNAKNTVYLQMNSLKPEDTAVYYCAADHVDDEAQNYDYWGQGTQVTVSS	low polyreactivity
QVQLVESGGGLVQSGGILRLSCAASGGTFYANAMGWYRQAPGKERELVAAITSGGSTNYADSVKRRFTISRDNAKNTVSLQMNSLKPEDTAVYYCNASAQRRYWHSYFRRYDYWGQGTQVTVSS	low polyreactivity
QVQLLESGGGLVQAGGSLRLSCAASGSIFLTYAMGWYRQAPGKERELVAAISSSGGSTYYADSVKGRFTISRDNSKNTVYLQMNSLKPEVTAVYYCNAAYHFRRTLGRDHWGQGTEVTVSS	low polyreactivity
QVQLVESGGGLVQAGGSLRLSCAASGRTFSRNAMGWYRHAPGKEWELVAAISRTGGSTYYADSVKGRFTISRDNAKKTVYLQMNSLKPEDTAVYYCAAGTWGWYAYGYWGLGTQVTVSS	high polyreactivity
QVQLVESGGGLVQAGGSLRLSCAASGSTFFYYAMGWYRQAPGKERELVAAITSSGGRTYYADSVKGRFTISRDNAKNTVYLQMNSLKPEDTAVYYCAARDYRQSRYEYWGQGTQVTVSS	high polyreactivity
QVQLVESGGRLVQAGGSLSLSCASSGRIFWTYAMGLTRQAPGEERELVAAINSSDGTYYADSVKGRFTISRDNAKNTVYLQKNSLKPEDTAVYYCNADRDALVGYDYDYWGQGTQVTVSS	low polyreactivity
QVQLVESGGGLVQAGGSLRLSCAASGSTFDDYVMGWYRQAPGKERELVAGINSRGTSTDYADSVKGRFTISRDNAKNTVYLQMNSLIPEDTAVYYCAADDSHGYDYWGQGTQVTVSS	low polyreactivity
QVQLVESGGGLVQAGGSLRLSCAASGSTIYTYVMGWYRQAPGKERELVAAISWSGSSTYYADSVKGRFTISRDNAKNTVYLQMNSLKPEDTAVYYCNAQYRRGWWGVEYGYWGQGTQVTVSS	low polyreactivity
QVQLVESGGGLVQAGGSLRLSCAASGRTFTLNAMGWYRQAPGKERELVATISRRGGSTYYADSVKGRFTISRDNAKNTVYLQMNSLKPEDTAVYYCNVDRLGQRYDYWGQGTQVTVSS	low polyreactivity
QVQHVESGGGLVQAGGSLRLSCAASGIILRSNAMGWYRQAPGKERELVAAINYSGGRTYYADSVKGRFTISRDTAKNTVYLQMNSLKPEDTAVYYCAAGGYPYGLSRVKLYYWGQGTQVTVSS	high polyreactivity
QVQLVESGGGLVQAGGSLRLSCAASGRTLYIYAMGWYRQAPGKERELVAAITRRGDSTYYADSVKGRFTISRDNAKNTVYLQMNSLKPEDTAVYYCAADFQDTSSQYDPAYEYWGQGTQVTVSS	low polyreactivity
